In paper PMC2908215:

Biological target: T1, MLH1 p.Arg659Leu (human), P40692
T1 chain: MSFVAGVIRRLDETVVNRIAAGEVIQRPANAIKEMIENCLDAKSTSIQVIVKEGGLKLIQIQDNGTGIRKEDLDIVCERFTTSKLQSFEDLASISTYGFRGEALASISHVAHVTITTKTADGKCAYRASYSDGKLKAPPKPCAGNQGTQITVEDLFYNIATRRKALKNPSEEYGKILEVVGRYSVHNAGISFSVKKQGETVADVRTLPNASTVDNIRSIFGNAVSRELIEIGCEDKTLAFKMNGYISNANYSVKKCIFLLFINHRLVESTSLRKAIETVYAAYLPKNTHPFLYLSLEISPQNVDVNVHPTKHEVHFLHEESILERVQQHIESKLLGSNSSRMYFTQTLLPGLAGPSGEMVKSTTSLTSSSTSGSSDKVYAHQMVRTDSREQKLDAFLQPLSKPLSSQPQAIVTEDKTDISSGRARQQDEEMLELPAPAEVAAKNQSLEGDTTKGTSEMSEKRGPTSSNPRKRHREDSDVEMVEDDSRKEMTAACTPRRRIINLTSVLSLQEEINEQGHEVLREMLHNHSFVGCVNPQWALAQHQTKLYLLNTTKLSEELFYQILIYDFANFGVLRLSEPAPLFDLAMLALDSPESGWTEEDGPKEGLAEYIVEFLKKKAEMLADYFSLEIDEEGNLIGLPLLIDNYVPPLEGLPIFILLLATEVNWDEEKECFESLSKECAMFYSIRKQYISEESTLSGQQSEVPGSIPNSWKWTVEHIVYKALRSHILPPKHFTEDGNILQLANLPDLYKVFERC
Assay: co-IP
Conditions: remark: other sources report otherwise

co-precipitated PMS2 in relation to wild-type (% of wild-type): 77
B1: PMS2, P54278 1-862 (natural protein)
chain: MERAESSSTEPAKAIKPIDRKSVHQICSGQVVLSLSTAVKELVENSLDAGATNIDLKLKDYGVDLIEVSDNGCGVEEENFEGLTLKHHTSKIQEFADLTQVETFGFRGEALSSLCALSDVTISTCHASAKVGTRLMFDHNGKIIQKTPYPRPRGTTVSVQQLFSTLPVRHKEFQRNIKKEYAKMVQVLHAYCIISAGIRVSCTNQLGQGKRQPVVCTGGSPSIKENIGSVFGQKQLQSLIPFVQLPPSDSVCEEYGLSCSDALHNLFYISGFISQCTHGVGRSSTDRQFFFINRRPCDPAKVCRLVNEVYHMYNRHQYPFVVLNISVDSECVDINVTPDKRQILLQEEKLLLAVLKTSLIGMFDSDVNKLNVSQQPLLDVEGNLIKMHAADLEKPMVEKQDQSPSLRTGEEKKDVSISRLREAFSLRHTTENKPHSPKTPEPRRSPLGQKRGMLSSSTSGAISDKGVLRPQKEAVSSSHGPSDPTDRAEVEKDSGHGSTSVDSEGFSIPDTGSHCSSEYAASSPGDRGSQEHVDSQEKAPKTDDSFSDVDCHSNQEDTGCKFRVLPQPTNLATPNTKRFKKEEILSSSDICQKLVNTQDMSASQVDVAVKINKKVVPLDFSMSSLAKRIKQLHHEAQQSEGEQNYRKFRAKICPGENQAAEDELRKEISKTMFAEMEIIGQFNLGFIITKLNEDIFIVDQHATDEKYNFEMLQQHTVLQGQRLIAPQTLNLTAVNEAVLIENLEIFRKNGFDFVIDENAPVTERAKLISLPTSKNWTFGPQDVDELIFMLSDSPGVMCRPSRVKQMFASRACRKSVMIGTALNTSEMKKLITHMGEMDHPWNCPHGRPTMRHIANLGVISQN
